These results are taken from patent US20230303667A1.

To fix the notation:
B1: 5.6.c2618 (antibody, V domains shown)
VH: QVQLVQSGAEVKKPGASVNLSCKGSGYSFRTYYIHWVRQAPGQGLEWMGIINSSGGGTTYAQKFQGRVTMTRDTSTSTVYMELRSLKYEDTAMYYCARDRFPTVSGEPFAMDVWGQGTTVTVSS
VL: EVVLTQSPVTLSLSPGERATLSCRASQSVSGYLAWYQQKPGQVPRLLIYDTSNRATGIPARFSGSGSGTDFTLTISTIEPEDFAVYYCQQRSKWGVTFGGGTKVDIK
B2: 2.10.1E06 (antibody, V domains shown)
VH: EVQLVESGGGLIQPGGSLRLSCTASGFTFSKFAMSWVRQAPGRGLEWISYISGGSKTKYYADSVRGRFTISRDNAKGSLFLQMNSLRAEDTAIYFCAKKGWQSTFLGMDYFYGMDVWGKGTTVTVSS
VL: EIVLTQSPGTLSLSPGERATLSCRASQSVTSNYLAWYQQKPGQAPRVLIYGASSRATGIPDRFSGSGSGTDFTLTISRLEPEDFAVYYCQQFGASPPYSFGQGTKVEIK
B3: 9.6.3A06 (antibody, V domains shown)
VH: EVQLLESGGGLVKPGGSLRLSCAASGFTFNEYMMNWVRQPPGKGLEWVSSISGTSTYINYADSVKGRFTISRDNAKNSLYLQMNSLRSDDTAMYYCARGSTGGYWGQGTLITVSS
VL: DIVMTQTPLSSAVTLGQPASISCRSSQRLVHSDGNTYLSWLHQRPGQPPRLLIYKVSLRFSGVPDRFSGSGAGTDFTLKISRVEAEDVGIYYCMQATQFPLTFGGGTKVEIK
B4: 9.6.1A09 (antibody, V domains shown)
VH: EVQLVESGGGLVQPGGSLRLSCAASGFTFRSYDMDWFRQSTGKGLEWVSAIGSAGDTYYTDSVKGRFTISRENGKNSLYLQMNSLRAGDTAVYYCARARFGDNVFDLWGRGTLVTVSS
VL: DIVMTQSPDSLAVSLGERASINCKSSQSVLSSSNTKNYLAWYQHKPGQPPKLLIYWASTRESGVPDRFSGSGSGTDFTLTISSLQPEDVAVYYCQQYYGAPYTFGQGTKVEIK
B5: 5.1.13G03 (antibody, V domains shown)
VH: QVQLQESGPGLVKPSGTLSLTCAVSGGSISSTNWWSWVRQPPGKGLEWIGEIYHSGSTNYNPSLKSRVTISLDKSKDQFSLKLSSVTAADTAVYYCAYSNTWTGGWGQGTLVTVSS
VL: DIQMTQSPSSLSASVGDRVTITCRASQSISSYLNWYQQKPGKAPKVLIYSAFSLQNGVPSRFSGSGSGTDFTLTISSLQPEDFATYYCQQSYSTPRTFGQGTKVEIK
B6: 5.1.7D03 (antibody, V domains shown)
VH: EVQLVQSGGGLAQPGGSLRLSCAASGFTFRSYDMHWVRQVTGKGLEWVSAIGTAGDTYYTGSVKGRFTISRENDKSSLYLQMSSLRGEDTAVYYCARAAFGSHYFDYWGQGTLVTVSS
VL: EIVLTQSPGTLSLSPGERAALSCRASQSVSGNYFAWYQQKSGQAPRLLISAASSRATGVPDRFSASGSGTDFTLTISRLEPEDSAVYYCQQYGSSPLTFGQGTKVEIK

For the assay, the target named is Ebola Zaire (Kikwit strain) glycoprotein (Ebola Zaire (Kikwit strain)) (UniProt P87666). Briefly: cell-based or functional assay.
Chain of Ebola Zaire (Kikwit strain) glycoprotein (Ebola Zaire (Kikwit strain)) (P87666 33-676 limits assumed): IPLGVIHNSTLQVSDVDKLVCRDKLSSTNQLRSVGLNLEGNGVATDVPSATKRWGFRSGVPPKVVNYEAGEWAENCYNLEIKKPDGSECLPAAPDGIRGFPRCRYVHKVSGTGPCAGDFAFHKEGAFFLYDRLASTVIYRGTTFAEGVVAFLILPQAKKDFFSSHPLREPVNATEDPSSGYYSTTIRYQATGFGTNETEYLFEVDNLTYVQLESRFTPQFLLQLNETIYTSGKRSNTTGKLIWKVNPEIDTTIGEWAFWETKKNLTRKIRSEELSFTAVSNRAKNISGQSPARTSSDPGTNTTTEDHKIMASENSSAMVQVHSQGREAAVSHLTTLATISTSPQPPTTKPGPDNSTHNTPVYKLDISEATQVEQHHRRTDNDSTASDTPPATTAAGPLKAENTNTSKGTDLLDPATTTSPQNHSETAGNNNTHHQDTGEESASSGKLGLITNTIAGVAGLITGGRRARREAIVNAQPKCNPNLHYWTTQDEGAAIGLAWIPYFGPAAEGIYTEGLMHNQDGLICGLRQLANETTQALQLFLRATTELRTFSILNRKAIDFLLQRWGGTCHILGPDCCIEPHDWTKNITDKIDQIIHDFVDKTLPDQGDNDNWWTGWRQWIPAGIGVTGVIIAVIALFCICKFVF
On to B1, for which the PRNT50 (ug/ml) for Ebola Zaire (Kikwit strain) came to 0.0061 µg/mL. The same measure for B2: 0.781 µg/mL. B3: the PRNT50 (ug/ml) for Ebola Zaire (Kikwit strain) stood at 0.0488 µg/mL.

On to B4, for which the PRNT50 (ug/ml) for Ebola Zaire (Kikwit strain) came to 0.781 µg/mL.

B5 registered a PRNT50 (ug/ml) for Ebola Zaire (Kikwit strain) of 0.0978 µg/mL. Molecule B6 gave a PRNT50 (ug/ml) for Ebola Zaire (Kikwit strain) of 1.57 µg/mL.
